For one molecule, Kd results are on record in publication PMC10614612, “Identification of a carbonic anhydrase–Rubisco complex within the alpha-carboxysome” (Proceedings of the National Academy of Sciences of the …, 2023).

In the assay the target is T1, biotinylated Rubisco (H. neapolitanus CbbL8S8) (H. neapolitanus, UniProt O85040 1-473; P45686 1-110, biotin (sites and subunit not stated)).
T1 construct: Rubisco large subunit CbbL, H. neapolitanus, alpha-carboxysomal Form IA; Rubisco small subunit CbbS, H. neapolitanus; Held on streptavidin sensors; how it was biotinylated is in the SI Appendix methods; source: E. coli, coexpressed with GroEL/ES, purified (Strep-tag purification), biotinylated; copies: 8 + 8
The experiment in a line: BLI; biotinylated Rubisco immobilised on streptavidin biosensors; 62.5–2.0 nM CsoSCA-MBP as prey; 25 mM Tris pH 7.5, 125 mM NaCl, 0.01% Triton X100; 1:1 binding model; triplicate. The following applies: both partners purified.

B1: CsoSCA-MBP (enzyme, H. neapolitanus, UniProt O85042 1-514, looked up)
chain: MNTRNTRSKQRAPFGVSSSVKPRLDLIEQAPNPAYDRHPACITLPERTCRHPLTDLEANEQLGRCEDSVKNRFDRVIPFLQVVAGIPLGLDYVTRVQELAQSSLGHTLPEELLKDNWISGHNLKGIFGYATAKALTAATEQFSRKIMSEKDDSASAIGFFLDCGFHAVDISPCADGRLKGLLPYILRLPLTAFTYRKAYAGSMFDIEDDLAQWEKNELRRYREGVPNTADQPTRYLKIAVYHFSTSDPTHSGCAAHGSNDRAALEAALTQLMKFREAVENAHCCGASIDILLIGVDTDTDAIRVHIPDSKGFLNPYRYVDNTVTYAQTLHLAPDEARVIIHEAILNANRSDGWAKGNGVASEGMRRFIGQLLINNLSQIDYVVNRHGGRYPPNDIGHAERYISVGDGFDEVQIRNLAYYAHLDTVEENAIDVDVGIKIFTKLNLSRGLPIPIAIHYRYDPNVPGSRERTVVKARRIYNAIKERFSSLDEQNLLQFRLSVQAQDIGSPIEEVASA
notes: CsoSCA, beta-carbonic anhydrase of the alpha-carboxysome, H. neapolitanus; also called CsoSCA-MBP-his; C-terminal MBP tagged CsoSCA; source: E. coli, purified (His-tag purification, size exclusion chromatography); not shown: MBP, C-terminal, kept
For the molecule B1, the Kd came to 1.2 ± 0.1 nM.
